# Data published in publication PMC6208404, “Calcium sensing by the STIM1 ER-luminal domain” (Nature Communications, 2018).
# B1: single-cysteine EFSAM-GrpE (CGG-EFSAM(58-209)-linker-GrpE(1-171)), labelled with fluorescein and/or Alexa Fluor 594 (other, mouse | Thermus thermophilus HB8)
# chain: CGGSEDEKLSFEAVRNIHKLMDDDANGDVDVEESDEFLREDLNYHDPTVKHSTFHGEDKLISVEDLWKAWKSSEVYNWTVDEVIQWLITYVELPQYEETFRKLQLTGHAMPRLAVTNTTMTGTVLKMTDRSHRQKLQLKALDTVLFGPPLLTRHNLELSRANSSTLAAVTSGSELMEERNHENTLEKDLEAVGQEAQALEERLKAAEEELKGLKDKYLRLLADFDNYRKRMEEELKAREREGVLKALRALLPVLDDLDRALEFAEASPESIRQGVRAIRDGFFRILAGLGVEEVPGEGEAFDPRYHEAVGLLPGEPGKVAKVFQRGFRMGEALVRPARVAVGEEKR
# modifications: fluorescein-5-maleimide or Alexa Fluor 594 C5 maleimide on the engineered N-terminal cysteine (random labelling, ~0.8-0.9:1 fluorophore to protein)
# notes: engineered stretch with the single cysteine, immediately N-terminal to EFSAM residue 58; STIM1 ER-luminal EFSAM domain, mouse, residues 58-209; linker between EFSAM and GrpE; GrpE, Thermus thermophilus HB8, residues 1-171 (nucleotides 2222-2734 of GenBank AB012390.1); also called double-labelled EFSAM-GrpE; donor/acceptor-labelled EFSAM-GrpE; source: E. coli BL21, purified (Ni-NTA, Superdex 200 …)
# Molecular target: the molecule itself
# Experiment: FRET or BRET; in vitro; purified protein randomly labelled with fluorescein (donor) and Alexa Fluor 594 (acceptor) at an engineered N-terminal cysteine; 250 nM protein, 22 °C, excitation 420 nm; Chelex-treated Ca2+-free buffer, FRET reduced as Ca2+ was added
protein,measurement,value
B1,binding result,binds
